{"source": "the DeepSol protein solubility set", "data": [{"test": "soluble on expression in E. coli; label from the status in PepcDB or PDB records", "values": [{"sequence": "MSLNKPVLPKPAPSISSLSLKLPKADRSIETYRLAASRTFPARLEGPLNRIAFSAVHTVADPFADNDPWLSVAVDWDKTIAFREHVWDLGLGVAEAMDTAQRGMGLDWPTSLELITRSVAAAKRRNALVFSGAGTDHLAVEDARTVDDVIRAYEEQISAVEKVGGRIILMASRALAKLGRNADDYAKVYDRVLSQVREPVIIHWLGDMFDPALTGYWGTKDLDKAMDVAVAVINANAAKVDGVKVSLLDKQREIDMRRRLDKRIRMYTGDDFNYAELIAGDSQGFSHALLGIFDAIAPAASYALSRLAAGDEAGFHDVLGPTVPLSRHIFKAPTRFYKTGVVFMAYLNGHQDHFTMVGGQESARSMLHLAELFRLADQAGLLANPELATRRMTTVLASHGIESEGHHHHHH", "soluble on expression in E. coli": "not soluble"}, {"sequence": "MSLNLTTTVLSLQLEQPFVSNKGSTTTVHQVVIKLTWQEYGGFGTVLCPKETQLSVEQIQQLIQACEPLLSTATPWQFELYQGQLASVVRNQAAMMAGIDMAWHDLLGKVVAQPIHALWGLAGLSIPPTALSLGAQSEQALVAQAAKLAAWPILKLKLTTDSNLDSLRQLREVYAGRIWVDGNGAWDVDQAIAAAQQCHTYGVELIEQPIPAGNLDQLRTIRQHSPIPIVADEDCRGLADVLRLHTCVDVINLKLFKCGGLRQARTMIDVAKQFGLKVMLGCKTESSLGISAIAQLAGLADYLDLDGHLDLVNDPFQGLVIEQGTLRLPQTPGLGLTIQGAIEEGHHHHHH", "soluble on expression in E. coli": "not soluble"}, {"sequence": "MSLNNIAPQSPVMRRLTLQDNPAIARVIRQVSAEYGLTADKGYTVADPNLDELYQVYSQPGHAYWVVEYEGEVVGGGGIAPLTGSESDICELQKMYFLPAIRGKGLAKKLALMAMEQAREMGFKRCYLETTAFLKEAIALYEHLGFEHIDYALGCTGHVDCEVRMLRELEGHHHHHH", "soluble on expression in E. coli": "soluble"}, {"sequence": "MSLNNNDLVAKLWKLCDNLRDGGVSYQNYVNELASLLFLKMCKETGQEAEYLPEGYRWDDLKSRIGQEQLQFYRKMLVHLGEDDKKLVQAVFHNVSTTITEPKQITALVSNMDSLDWYNGAHGKSRDDFGDMYEGLLQKNANETKSGAGQYFTPRPLIKTIIHLLKPQPREVVQDPAAGTAGFLIEADRYVKSQTNDLDDLDGDTQDFQIHRAFIGLELVPGTRRLALMNCLLHDIEGNLDHGGAIRLGNTLGSDGENLPKAHIVATNPPFGSAAGTNITRTFVHPTSNKQLCFMQHIIETLHPGGRAAVVVPDNVLFEGGKGTDIRRDLMDKCHLHTILRLPTGIFYAQGVKTNVLFFTKGTVANPNQDKNCTDDVWVYDLRTNMPSFGKRTPFTDEHLQPFERVYGEDPHGLSPRTEGEWSFNAEETEVADSEENKNTDQHLATSRWRKFSREWIRTAKSDSLDISWLKDKDSIDADSLPEPDVLAAEAMGELVQALSELDALMRELGASDEADLQRQLLEEAFGGVKEEGGSHHHHHH", "soluble on expression in E. coli": "soluble"}, {"sequence": "MSLNNTPRYPQRVRNDLRFRELTVLRVERISAGFQRIVLGGEALDGFTSRGFDDHSKLFFPQPDAHFVPPTVTEEGIVWPEGPRPPSRDYTPLYDELRHELAIDFFIHDGGVASGWAMQAQPGDKLTVAGPRGSLVVPEDYAYQLYVCDESGMPALRRRLETLSKLAVKPQVSALVSVRDNACQDYLAHLDGFNIEWLAHDEQAVDARLAQMQIPADDYFIWITGEGKVVKNLSRRFEAEQYDPQRVRAAAYWHAKEGGSHHHHHH", "soluble on expression in E. coli": "soluble"}, {"sequence": "MSLNPNDFKDELKSVALEKANVNLRLDGDISWSFFPWLGLGLEDIGVSIGSDPEILQFDRAEFGLAILPLLKQKIQVDKVNLVNLKASLNKNAQGQGNWQLDLPDSTPAASSSIPATTASTASSTSANDTVEKLKLPDIQLDELRIENAQVQYRDEQTKQLINATLNVQLNDVQWDKAWPMVMDIAVTQSDLQGKSPIKAKATLNANLAVFPEREALSLDSLVLSADVESELLPTSPISAKLSAANVDVDLPQENVLAEGLALSVLGVNVDAKIQAYQVLSEPQFSAVLTVGEFNPRYLMTRLNLPLPEMSDDTAMTKARANVTLEGSLDSITAQPISITIDDTNIEANAVVDLSPLRWDVSVAGKNLDLDRYLPTPVEKGKDGKVEAITDVDIAAKTESGDLIPIDLIRSLNGHVGMVFENLTAKKLKIDKIELDSTQSNGLVKISPLRAYLYKGSVSSKASLDVRGITPVFNISPAIDGVQIQPLLVDFMDMNKIAGATYLNGELKAKGNSVDDLMSSLQGDLLIDIKKGALVGTNLTKTVCEGIAAVRKEKIDEQQFGPDTPFETMRFPAHIVNGRVSTPGLKISSAGIQVTGDGVVSLPNSSLDYQANVGIAGSELDKACHVNEKVTKLAFPIVCKGKFSDDPAGLCRPDIKGFGKLFADLAEDELKLKVDAEKARLKEGHHHHHH", "soluble on expression in E. coli": "soluble"}, {"sequence": "MSLNPNYSIFAELYDELFDPNMYLSWNGFVQDNSRNNRILDLAGGSGKLAVLLTKSGYQVSILDLSSQMLSLAKQRAENNNFSFDLFQANMAQNWHLNKRFPLISCFADSLNYLSNIGETKRTFFEVFNHLEKNGKFLFDVITPYQVNVVYRNYMYNNDDDPEKIFMWTSFPGDIKNSVDHDLKFFVYQEGIDAFKMVREVHHEQTYPPEKYLSLLKEIGFRNIHLTSDFGRGKITRDTTRAFFVAEKEGHHHHHH", "soluble on expression in E. coli": "not soluble"}, {"sequence": "MSLNQWMELADRVLAGAEVTDEEALSILHCPDEDILLLMHGAFHIRKHFYGKKVKLNMIMNAKSGLCPENCGYCSQSAISKAPIESYRMVNKETLLEGAKRAHDLNIGTYCIVASGRGPSNREVDQVVDAVQEIKETYGLKICACLGLLKPEQAKRLKDAGVDRYNHNLNTSQRNHSNITTSHTYDDRVNTVEIAKESGLSPCSGAIIGMKETKQDVIDIAKSLKALDADSIPVNFLHAIDGTPLEGVNELNPLYCLKVLALFRFINPSKEIRISGGREVNLRTLQPLGLYAANSIFVGDYLTTAGQEETEDHKMLSDLGFEVESVEEMKASLSAKSEGHHHHHH", "soluble on expression in E. coli": "soluble"}, {"sequence": "MSLNRPNHVAPKTLLETLPRDRAESYLNHCSGNSASASALYLWEMDMAAALHEVLSMTEVAVRGAIDAQLQSFAKSHGVASGEWIKERDSLPHLSELRFANGRPLFDHGSLRRMSRKQEGGRTRMHPRSQASTSHGDLIAQVMFGTWGAMLPDKNDSRPQSVQDAINGLWREALQEAFPQYREGHHHHHH", "soluble on expression in E. coli": "soluble"}, {"sequence": "MSLNSSFFKMMEKRSYNRFNQEQKAAITYDMKKHLRIIAGAGSGKTQTICAKAVYLMTQKQVDEERILMITFTRNAANELKKRVDNFSQRKTAVHIGTFHSIFFRIYNEICRKFPEVAMQGIQGDFSKDTAQKVNAVLQQLIRKYNLYIFDQYGEKTIASRLDYWQNMNLSVEEMVQLVKEKYDSIDKNARQPISERLYGLLTELQEQKRSQQLLEFNDVLQNLKSALENEEIQHYIGQKYDYLFIDEFQDTNPLQWEIVKRMTKENRIKLIVVGDDDQSIYGFRGSEPAYIKNFEKEYPTKTLFLLTNYRSRAAIVQGANRLISYNKNDRIPKAMIPAQKEAGVMEAYLFSDTKAESQWLIKQIQTFIQKNGKYKESIILYRSASQTQQLVQSLLKTNIPFVLEADSPYEGIFGIKSFQHFYQKIVHWQTALNLQKKNQAYQQLLRQLMADCYLKKSECDQYFSPKYQNIAVADYILSISPNLKSKSAEIREFEEALRKTDQHQEIYSLVQSYLHLPRIAKEIDQSDQEWIREEVKQHATFRRLQALSQETQATAKELKTREGHHHHHH", "soluble on expression in E. coli": "not soluble"}, {"sequence": "MSLNSTLHIPKAEIHVHLEATITPSLCRKFAERNKVKLSEDIFGSEYAYQWEDFYDFIKRYDIVTGVIYTPEDYYELTYEYLKECASYNVLYVEAMVSSTHAKAKGMTYHSFLDSVHQASQDAERDFGIVSRYLMNGIRHLGADSVQETAKEVLNNPHPALVGFGLAGDELNFPPNLFTKTFDMLKQESYPITVHAGEWDGPENIRNAIHLLHPTRLGHGVRSIEDLDLVKEIVEKDIVLETCPTSNIATKIYENYESHPVKKLHDLGVRVTVNSDDPPFFNATIQGEYDAMAGIGFSAQELLSMTRNAIESSFLPEDKKTEILTKLNEGHHHHHH", "soluble on expression in E. coli": "soluble"}, {"sequence": "MSLNSVPNDLQTWKRFVKDGVLDEARLRKRIAESWHRCKKAEVNPYLEKGPKVLQQTELDQQSKKHSFFLTTAKPYLEKLLPAIKEMEMMALLIDSDGVVLALDGHPRALYEAKRINFVEGACWTETAVGTNAIGTALHISEPVAIQGSEHYSIASHLWNCSAAPIHHEDGSLAGVIDISCPAAGAHPHMLGIATAIAYAAERELAAKSREKELELISRFGERAASSVPMVLCNTKQHIISASMPIRTSMPDWQGRHLYELKERGYSIENAVTIGDGGTCFYLSEQKKKKAFRFNGVIGQSGRSQAMLMHLERAAATDASVCLSGETGTGKEVAARALHENSERRHGPFVAVNCGAIPSDLIESELFGYAEGAFTGAKRNGYKGAFQKANQGTLFLDEIGEISHSMQVALLRVLQERKITPIGGTKEIPVDIRVIAATHCDLRELAENGKIREDLFYRLHVYPIELPPLRDRTEDIPDLFEYYKQKNHWPGDLPSDFCNVLKQWKWPGNIRELFNVFERLSIRFPDGRLRDESLPALLEAAGLPASSAEKKPAAAGVLTFREQIQKDMMIKALESAKGNVSQAAKISGIPRSTFYKRLKKFNLSAESEGGSHHHHHH", "soluble on expression in E. coli": "soluble"}, {"sequence": "MSLNTISGTHFNYHQVCRRKLWLFSAGITMEHTSDLVYEGKLIHETTYQQRPERYQELELDGIKIDFYDAKNRVVHEVKKSNKISPAHRLQLLYYLYVLERNGVLGATGILEYPTLRKKEEVILSDIDRERIREIEQEILQIISHEDCPPVIDSGICKNCSYYEFCFSGEEQEGHHHHHH", "soluble on expression in E. coli": "soluble"}, {"sequence": "MSLNVVNSIFSKLSIAPMIDWTNSPFRTLMRLLAPNALLYTEMQTTGAVQNNPDRALYFNSVEHPLAIQLGGADKSALVKCAIIAEQKGFNEINLNLGCPSDKVQAGRFGACLMKEPEHVADCIRAIKQVVGIPVTAKTRIGIDNQDSYEFFRSFSLHLVEAGCDKLIIHARKAWLNGLNPKQNRTIPPVNYDYVYELKKEIPHIFITINGNILTVEEINNHLKHVDGVMLGRLACDNPYQIAEIHQALYPEFIKIKRSQLLMNYLDYWFDQSRANEGHHHHHH", "soluble on expression in E. coli": "not soluble"}, {"sequence": "MSLPDKFKRVHVVVMDSVGIGEAPDAAKFGDFDVDTFGHIAKHVGGLKMPEMGKLGLSNIREIEGIKKAEKPLAYYTKMQEASNGKDTMTGHWEIMGLYIDTPFRVFPDGFPDDLINQIEEKTGRKVIGNKPASGTEIMAELGEEHVKTGALIVYTSADSVLQIAAHEDVVPLEELYEICEFCRKITLDDPYMLGRIIARPFVGEPGAFVRTPNRHDYALKPFKPTVMDALKDGGKDVIAIGKISDIFDGEGVTESIRTKSNMDGMDQFIAVLDKDFNGMSFLNLVDFDALFGHRRDPQGYADALVDFDGRLVEVMEKLTDDDLLIITADHGNDPTYTGTDHTREFVPLLVYSPRFKNGGSELELRKTFADLGATVADNFDVKMPEYGTSFLRDLKEGHHHHHH", "soluble on expression in E. coli": "not soluble"}, {"sequence": "MSLPMLQVALDNQTMDSAYETTRLIAEEVDIIEVGTILCVGEGVRAVRDLKALYPHKIVLADAKIADAGKILSRMCFEANADWVTVICCADINTAKGALDVAKEFNGDVQIELTGYWTWEQAQQWRDAGIGQVVYARSRDAQAAGVAWGEADITAIKRLSDMGFKVTVTGGLALEDLPLFKGIPIHVFIAGRSIRDAASPVEAARQFKRSIAELWG", "soluble on expression in E. coli": "soluble"}, {"sequence": "MSLPNEQPGTGPADTTLEQQDTAAAEVGHPRRIRSFVRRAGRTSTGQQRAIDELGPRFLLPYAAAPLDWEAAFGRTGARRIFEIGFGMGETSAHIAQLRPDDDFLGVEVHEPGVGALLKLIGERGIGNVRIVSHDAVEVLAQMIPEGTLDGIHVFFPDPWHKKRHNKRRLIQGPFVARLAAHLRPGGYLHCATDWEEYAHQMLEVLSAEPLLENTADGFAPRPDYRPVTKFEKRGLRLGHGVWDVVFRKREGHHHHHH", "soluble on expression in E. coli": "not soluble"}]}]}
